This experiment concerns the target V[2]-TRF2ΔBΔM. The experiment can be described thus: split reporter.

In turn, “Venus fragment-tagged Ku70 (V[1]-Ku70 / V[2]-Ku70) (from UniProt P12956 1-609) (natural protein)” registered a PCA fluorescence lower than with wild-type TRF2 of 45%.

Source of the values: publication PMC3984498.
